The target of assay [1] is CD123 on cells and tissues (CAL-1, GEN 2.2, PDX and primary BPDCN cells, normal pDC, monocytes, CD34+ cells, endothelial cells) (human) (UniProt P26951). Briefly: flow cytometry on monocytes; mean [minimum-maximum].
Assay [2] has the same target. Briefly: flow cytometry on normal pDC; mean [minimum-maximum]. For orientation: A flow cytometer gives signals particle by particle.
Assay [3] shares this target. Briefly: flow cytometry on BPDCN cells; mean [minimum-maximum].
Assay [4] has the same target. Briefly: flow cytometry on CD34+ cells; mean [minimum-maximum].
Assay [5] has the same target. Briefly: flow cytometry on endothelial HMEC cell line; mean [minimum-maximum].
The target is the same in assay [6]. Briefly: flow cytometry, MFIR = MFI of CD123 staining / MFI of isotype control mAb; cells: BPDCN, n=3; mean [min-max].
For assay [7] the target is unchanged. Briefly: flow cytometry, MFIR = MFI of CD123 staining / MFI of isotype control mAb; cells: CD34 cells, n=7; mean [min-max].
For assay [8] the target is unchanged. The assay is described as follows: flow cytometry, MFIR = MFI of CD123 staining / MFI of isotype control mAb; cells: monocytes, n=12; mean [min-max].
Assay [9] has the same target. Briefly: flow cytometry, MFIR = MFI of CD123 staining / MFI of isotype control mAb; cells: normal pDC, n=7; mean [min-max].
Assay [10] shares this target. The assay is described as follows: flow cytometry, MFIR = MFI of CD123 staining / MFI of isotype control mAb; cells: lymphocytes, n=12; mean [min-max].
For assay [11] the target is unchanged. Briefly: flow cytometry, MFIR = MFI of CD123 staining / MFI of isotype control mAb; cells: polynuclear cells, n=5; mean [min-max].
The target in assay [12] is T1, CD123 (protein in solution in the Octet affinity assay) (human, UniProt P26951 19-305, limits assumed).
T1 construct: also called IL-3Rα; Interleukine-3 Receptor alpha
T1 sequence (looked up): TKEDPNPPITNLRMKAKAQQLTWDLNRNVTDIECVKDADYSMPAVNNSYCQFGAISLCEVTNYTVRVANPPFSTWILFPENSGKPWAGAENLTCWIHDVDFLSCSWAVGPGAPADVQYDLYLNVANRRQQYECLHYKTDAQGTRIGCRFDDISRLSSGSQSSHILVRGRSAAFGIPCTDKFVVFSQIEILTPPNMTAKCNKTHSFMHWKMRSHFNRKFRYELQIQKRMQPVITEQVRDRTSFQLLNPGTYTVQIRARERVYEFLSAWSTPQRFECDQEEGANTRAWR
The assay is described as follows: BLI (Octet), antibody on streptavidin biosensor, CD123 12.5 nM. As for the experimental part:
(§1) Affinity of the antibodies of the invention to CD123 is tested on streptavidin biosensors. Herein, to determine KD values seven different concentrations of CD123 were used on immobilized antibodies of the invention. The results were analyzed according to the Octet system available at FortéBio.

Assay [13] concerns the target T1, CD123 (protein in solution in the Octet …). Briefly: BLI (Octet), antibody on streptavidin biosensor, CD123 6.25 nM. As for the experimental part:
as §1

Assay [14] has the same target. The assay is described as follows: BLI (Octet), antibody on streptavidin biosensor, CD123 in solution. As for the experimental part:
as §1
On the technique in general: BLI is a label-free optical method that tracks binding on a fibre tip over time.

Assay [15] has the same target. Briefly: BLI (Octet), antibody on streptavidin biosensor, CD123 25 nM. As for the experimental part:
as §1

The target is the same in assay [16]. Briefly: BLI (Octet), antibody on streptavidin biosensor, CD123 50 nM. As for the experimental part: as §1

Take 6H6 commercial antiCD123 antibody: the MFI in [1] amounted to 1700; in assay [2] it was 34400; in [3], 11700; in assay [4] it was 874; in assay [5], 1250. Moreover, the MFIR was found to be 42.2 in assay [6]; 8 in [7]; 3.3 in assay [8]; 210 in [9]; 2.2 in assay [10]; 1.5 in assay [11].

B1: 11A12C6 (antibody, V domains shown)
VH: QVQLKESGPGLVAPSQSLSITCTVSGFSLTSYDINWIRQTPGKGLEWLGVIWTGGGTNYNSAFMSRLSISRDNSKSQVFLKMNSLQTDDTAIYYCVRGDGYYWYFDVWGAGTTVTVSS
VL: IVMTQSPSSLAVSAGEKVTMSCKSSQSLFSSSARKNYLAWYQQRPGQSPKLLIYWASTRESGVPDRFTGSGSGTDFTLTIGSVQAEDLAVYYCKQSYSLFTFGSGTKLEIKR
notes: Mouse hybridoma monoclonal antibody; also called AB5
Regarding B1, the Response in assay [12] was found to be 0.416. The molecule further yielded a Response in [13] of 0.281. For the same molecule, in [14], the Kd (in general, the free concentration of one partner at which half of the binding sites on the other are occupied at equilibrium, for simple one-to-one binding) was less than 0.001 nM; the koff (usually a measure of how fast the partners let go of each other) was less than 1e-07 s⁻¹; the kon – broadly, a measure of how fast the partners come together – came out at 326000 M⁻¹ s⁻¹.

B2: 15E11B7 (antibody, V domains shown)
VH: EVQLEQSGPELVKPGDSVKISCKASGYSFTGYFMNWVKQSHGKSLEWIGRINPYNDYTFNNQKFKDKATLTVDKSSSTAHMELLSLTSEDSAVYYCGGGVRGAWFAFWGQGTLVTVSE
VL: DIVLTQSTTSLAVSLGQRATISCRASKSVSTSGYNYMHWYQQKPGQPPKLLIYLASNLESGVPARFSGSGSGTDFTLNIHPVEEEDAATYYCQHSADLPYTFGGGTKLEIKR
notes: Mouse hybridoma monoclonal antibody; also called AB6
Regarding B2, the Response in assay [15] was found to be 0.305. In addition, the Response in assay [12] is 0.155. The molecule also had a Response in assay [13] of 0.0878. In assay [14], this molecule showed a Kd of 2.48 nM, a koff of 0.000826 s⁻¹ and a kon of 332000 M⁻¹ s⁻¹.

B3: 18B4D5 (antibody, V domains shown)
VH: EVKLQESGPGLVKPSQSLSLTCTVTGYSITSDYTWNWIRQFPGNKLEWMGYISFSGSTSYNPSLKSRLSITRDTSKNQFFLQLNSVTTEDTATYYCARGLDYWGQGTTLTVSS
VL: DIVMTQSPAIMSASLGERVTMTCTASSSISSSYLYWYQQKPGSSPKLWIYSTSNLASGVPARFSGSGSGTSYSLTISSMEAEDAATYYCHQLHRSPWTFGGGTKLEIKR
notes: Mouse hybridoma monoclonal antibody; The tie uses 'at least 85% identity' wording; also called AB1; antiCD123 B4D5
Turning to B3, the Response in assay [15] came out at 0.42; in assay [16] it was 0.697; in [12], 0.23; in assay [13], 0.12. This molecule yielded a Kd in [14] of less than 0.001 nM. Besides, in assay [14], the koff was less than 1e-07 s⁻¹. Besides, the kon in assay [14] is 122000 M⁻¹ s⁻¹.

B4: 14G12D7 (antibody, V domains shown)
VH: EVQLQESGPGLVKPSQSLSLTCTVTGYSVTSDYAWNWIRQFPGNKLEWMGYIIYSGTTSYNPSLKSRISITRDTSKNQFFLQLNSVTTEDTATYYCTRGVDYWGQGTTLTVSS
VL: DIVLTQSPAIMSASPGEKVTMTCRASSSVRSSYLHWYQQKSGASPKLWIYSTSNLASGVPARFSGSGSGTSYSLTISSVEAEDAATYYCLQFSGYPFTFGGGTKLEIKR
notes: Mouse hybridoma monoclonal antibody; also called AB4
For the molecule B4, the Response in [15] worked out at 0.134. For the same molecule, in assay [16], the Response was 0.221. In [14], the Kd turned out to be 8.84 nM, the koff was 0.000325 s⁻¹ and the kon amounted to 36700 M⁻¹ s⁻¹.

B5: 17F7B2 (antibody, V domains shown)
VH: EVQLQQSGTVLARPGASVKMSCKASGYSFTSYWMHWVKQRPGQGLEWIGAFYPGKSDTTYNQKFKGKAKLTAVTSASTAYMELSSLTNEDSAVYYCTKGYRYDWFAYWGQGTLVTVSA
VL: DVVMTQTPLSLPVSLGDQASISCRSSQSLVHSNGITYLHWYLQKPGQSPKLLIYKVSNRFSGVPDRFSGSGSGTDFTLKISRVEAEDLGVYFCSQNTHVPFTFGSGTKLEIKR
notes: Mouse hybridoma monoclonal antibody; also called AB2
On to B5, for which the Response came out at 0.34 in [15], 0.507 in assay [16], 0.265 in [12] and 0.149 in assay [13]. Further, in assay [14], the Kd was 2.55 nM. The koff in assay [14] was 0.000882 s⁻¹. In assay [14], this molecule had a kon of 346000 M⁻¹ s⁻¹.

B6: 11B6E6 (antibody, V domains shown)
VH: QVKLEESGPGLVAPSQSLSITCTVSGFSLTSYDISWIRQPPGKGLEWLGVIWTGGGTNYNSAFMSRLSISKDNSKSQVFLKMFSLQTDDTAIYYCVRAHGYYFAMDYWGQGTSVTVSS
VL: DIVLTQSPSSLAVSAGEKVTMRCKSSQSLLNSSTRKNYLAWYQQKPGQSPKLLIYWASTRESGVPDRFTGSGSGTDFTLTISSVQAEDLAVYYCKQSYNLFTFGSGTKLEIKR
notes: Mouse hybridoma monoclonal antibody; also called AB3
Consider B6, for which the Response in assay [15] worked out at 0.179; in assay [16] it was 0.316; in assay [12] it was 0.0895; in assay [13], 0.0349. Besides, the Kd in assay [14] turned out to be 9.37 nM. This molecule came in with a koff in assay [14] of 0.000657 s⁻¹. The same molecule came in with a kon in [14] of 70100 M⁻¹ s⁻¹.

(Values after patent US20220348668A1 (UNIVERSITE DE FRANCHE COMTE, published 2022).)
